Experimental data from the supplement of paper PMC9876800.

Tested on: peptide library, one residue held at a place counted from the S/T acceptor
Assay: relative phosphorylation of the sub-library (ratio to the mean residue at this position); human; higher = residue favoured
How it was run: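 In 384-well plates, purified recombinant kinases (human or orthologue constructs) were incubated for 90 min under kinase-specific conditions with 50 μM biotinylated degenerate peptide sub-libraries and 50 μM ATP spiked with γ-32P-ATP. Each sub-library fixed a single residue at one position around a central Ser/Thr. Relative sub-library phosphorylation, measured by phosphorimaging and densitometry of streptavidin membrane spots, is given as a ratio to the mean residue at that position.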

TTK, construct: Full length, sequence (P33981 whole entry, looked up): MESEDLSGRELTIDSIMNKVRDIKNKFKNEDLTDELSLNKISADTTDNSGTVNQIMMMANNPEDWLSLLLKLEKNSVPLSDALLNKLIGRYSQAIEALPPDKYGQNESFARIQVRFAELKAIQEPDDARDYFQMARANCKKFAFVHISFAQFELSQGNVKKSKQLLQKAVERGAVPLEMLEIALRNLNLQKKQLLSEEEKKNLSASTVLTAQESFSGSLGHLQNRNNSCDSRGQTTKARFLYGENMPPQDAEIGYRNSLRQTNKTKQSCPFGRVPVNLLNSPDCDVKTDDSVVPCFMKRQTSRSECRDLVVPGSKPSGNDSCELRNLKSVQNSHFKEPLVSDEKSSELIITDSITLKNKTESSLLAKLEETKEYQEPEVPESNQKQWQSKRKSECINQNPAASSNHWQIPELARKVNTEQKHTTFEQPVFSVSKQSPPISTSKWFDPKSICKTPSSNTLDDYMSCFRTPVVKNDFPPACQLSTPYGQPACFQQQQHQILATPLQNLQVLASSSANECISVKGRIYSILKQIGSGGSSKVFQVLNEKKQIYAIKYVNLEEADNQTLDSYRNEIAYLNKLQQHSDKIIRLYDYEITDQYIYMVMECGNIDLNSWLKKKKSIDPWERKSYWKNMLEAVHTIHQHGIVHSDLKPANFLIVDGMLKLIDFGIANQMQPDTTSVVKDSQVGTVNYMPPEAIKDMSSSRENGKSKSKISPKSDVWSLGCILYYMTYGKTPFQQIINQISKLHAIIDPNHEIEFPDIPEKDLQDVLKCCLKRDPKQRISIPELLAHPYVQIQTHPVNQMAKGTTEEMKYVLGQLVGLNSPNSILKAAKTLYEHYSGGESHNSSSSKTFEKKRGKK
PRPF4B, construct: aa519-end, sequence (Q13523 519-1007, looked up): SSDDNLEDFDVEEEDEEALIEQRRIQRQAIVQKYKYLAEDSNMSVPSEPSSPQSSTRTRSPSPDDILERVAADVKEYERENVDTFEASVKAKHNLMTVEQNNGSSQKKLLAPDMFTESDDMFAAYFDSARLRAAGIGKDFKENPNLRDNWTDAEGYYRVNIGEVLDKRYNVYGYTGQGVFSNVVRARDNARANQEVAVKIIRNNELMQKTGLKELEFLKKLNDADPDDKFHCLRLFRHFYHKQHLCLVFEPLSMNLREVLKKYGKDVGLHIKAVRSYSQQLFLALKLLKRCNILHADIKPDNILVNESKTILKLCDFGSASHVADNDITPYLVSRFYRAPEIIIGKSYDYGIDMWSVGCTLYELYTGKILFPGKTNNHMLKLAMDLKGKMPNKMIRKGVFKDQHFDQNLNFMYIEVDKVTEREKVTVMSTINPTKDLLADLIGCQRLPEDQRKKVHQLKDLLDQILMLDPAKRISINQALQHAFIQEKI

TTK, construct: Full length (from UniProt P33981)
relative phosphorylation
Settings	at +1	at +2	at +3	at +4	at -1	at -2	at -3	at -4	at -5
A fixed	0.968	0.742	0.497	0.739	0.798	0.532	0.845	0.952	0.97
D fixed	0.397	0.389	0.331	0.48	1.22	4.68	2.19	1.55	1.15
E fixed	0.883	0.339	0.26	0.39	0.866	2.91	1.94	1.47	0.983
F fixed	0.541	0.748	1.48	0.895	0.671	0.373	0.55	0.76	0.791
G fixed	1.18	0.501	0.552	1.15	0.568	0.922	1.32	1.24	1.26
H fixed	0.952	1.44	0.97	1.42	1.78	0.675	1.18	1.05	1.25
I fixed	1.29	0.784	1.89	0.746	0.696	0.294	0.419	0.51	0.604
K fixed	1.28	1.61	0.956	1.76	1.26	0.456	0.966	1.02	1.1
L fixed	1.02	0.802	2.26	0.738	0.849	0.336	0.537	0.694	0.757
M fixed	1.49	1.02	1.29	0.868	0.905	0.453	0.651	0.865	0.884
N fixed	0.685	1.29	0.723	1.28	1.47	1.82	1.29	1.22	1.1
P fixed	0.275	0.773	0.532	0.823	0.891	0.504	0.959	0.984	1.39
Q fixed	1.71	0.974	0.748	1.1	1.16	0.873	0.975	0.981	0.857
R fixed	1.51	1.91	1.01	1.64	1.15	0.854	1.29	1.16	1.09
V fixed	1.45	0.963	1.23	0.651	0.837	0.337	0.487	0.675	0.784
W fixed	0.704	1.75	1.29	1.21	0.766	0.529	0.66	0.964	0.984
Y fixed	0.659	0.971	0.984	1.12	1.12	0.453	0.734	0.899	1.04
pThr fixed	0.734	0.393	0.576	0.455	0.7	1.12	1.75	1.37	1.41
pTyr fixed	0.362	0.27	0.696	0.45	0.787	0.765	0.997	0.781	1.47

PRPF4B, construct: aa519-end (from UniProt Q13523)
relative phosphorylation
Settings	at +1	at +2	at +3	at +4	at -1	at -2	at -3	at -4	at -5
A fixed	0.571	0.959	0.8	0.921	1.05	1.22	1.02	1.06	0.939
D fixed	0.544	0.683	0.635	0.83	0.907	0.693	0.586	1.81	1.13
E fixed	0.929	0.685	0.59	0.808	1.25	0.553	0.512	1.16	0.966
F fixed	0.507	1.27	0.722	0.958	0.81	1.27	0.409	0.856	0.905
G fixed	0.774	0.741	1.05	1.4	0.744	1.3	8.94	1.77	0.991
H fixed	0.596	1.07	1.01	1.02	0.844	0.907	0.507	1.01	0.832
I fixed	0.68	1.42	0.911	0.934	0.863	1.21	0.404	0.681	0.831
K fixed	0.56	0.713	1.08	1.03	0.894	0.582	0.382	0.747	1.04
L fixed	0.548	0.954	0.91	0.9	1.03	0.866	0.41	0.866	0.83
M fixed	0.689	1.05	0.747	1.04	1.27	0.815	0.43	0.75	0.842
N fixed	0.665	0.968	1.05	0.83	0.826	0.745	0.538	1.08	0.931
P fixed	5.85	0.725	2.53	1.02	0.785	1.47	0.587	1.13	1.18
Q fixed	0.696	0.791	0.923	0.951	1.25	0.608	0.439	0.858	0.998
R fixed	0.686	0.868	1.42	1.15	1.58	0.625	0.502	0.73	1.28
V fixed	1.56	1.44	0.953	0.882	0.922	1	0.384	0.625	0.987
W fixed	0.532	1.52	0.846	1.31	1.01	2.09	0.512	1.04	1
Y fixed	0.612	1.16	0.825	1	0.969	1.04	0.435	0.812	1.31
pThr fixed	0.638	0.803	0.794	0.583	0.68	0.828	0.697	1.72	0.911
pTyr fixed	0.586	0.825	0.74	0.735	1.15	1.2	0.791	0.882	1.36
